Measurements as given in the RNAGym collection of RNA variant scans (doi:10.1021/acssynbio.7b00057).

B1: Pistol ribozyme (parent)
chain: GGGUCGUUGUUCCAUAAUCGCGUGGAUAUGGCACGCAAGUUUCUACCGGGCACCGUAAAUGUCCGACUGGAGCCGUUCGGGCGGCUAUAAACAGACCUCAGGCCCGAAGCGUGGCGGCACCUGCCGCCGGUGGUAAAAAAGAUCGGAAGAGCACACGUCU

Variants of: B1
Test: aptazyme ON/OFF ratio, guanine; higher = stronger switching; co-transcriptional cleavage with and without guanine

Variant	aptazyme ON/OFF ratio
U7A U8G G9C U10A U11G C12U	1.08
U7A U8G G9C U10A U11G C12A	1.07
U7A U8G G9C U10A U11G C12G	1.35
U7A U8G G9C U10A C12A C13U	1.32
U7A U8G G9C U10A C12A C13G	1.26
U7A U8G G9C U10A C12A C13A	1.25
U7A U8G G9C U10A U11A C12U C13G	1.34
U7A U8G G9C U10A U11A C12U C13U	1.57
U7A U8G G9C U10A U11A C12U C13A	1.42
U7A U8G G9C U10C C12U C13A	1.14
U7A U8G G9C U10C C12U C13G	1.17
U7A U8G G9C U10C C12U C13U	1.38
U7A U8G G9A U11C C12U C13A	1.07
U7A U8G G9A U11C C12U C13U	1.46
U7A U8G G9A U11C C12U C13G	0.973
U7A U8G G9C U10A U11G	1.9
U7A U8G G9C U10A U11A	1.89
U7A U8G G9C U10A U11C	1.04
U7A U8G G9A U10G U11A C13G	1.16
U7A U8G G9A U10G U11A C13A	1.11
U7A U8G G9A U10G U11A C13U	1.03

Variant	aptazyme ON/OFF ratio
U7A U8G G9C U11A	2.34
U7A U8G G9C U11C	1.35
U7A U8G G9A U11G C12G C13U	1.52
U7A U8G G9A U11G C12G C13A	1.1
U7A U8G G9A U11G C12G C13G	1.08
U7A U8G G9A U11C C12G	1.56
U7A U8G G9A U11C C12A	1.46
U7A U8G G9A U11C C12U	1.39
U7A U8G G9A U10G U11C C13U	1.06
U7A U8G G9A U10G U11C C13G	1.1
U7A U8G G9A U10G U11C C13A	1.12
U7A U8G G9C U10A U11C C12A	1.29
U7A U8G G9C U10A U11C C12U	1.04
U7A U8G G9C U10A U11C C12G	1.22
U7A U8G G9C U10C U11C C13A	0.995
U7A U8G G9C U10C U11C C13U	1.04
U7A U8G G9C U10C U11C C13G	1.02
U7A U8G G9A U11C C12A C13G	1.3
U7A U8G G9A U11C C12A C13U	1.38
U7A U8G G9A U11C C12A C13A	1.14
U7A U8G G9C U10A C12U C13U	1.11

Variant	aptazyme ON/OFF ratio
U7A U8G G9C U10A C12U C13G	1.21
U7A U8G G9C U10A C12U C13A	1.31
U7A U8G G9C U10G U11G C12U C13G	1.18
U7A U8G G9C U10G U11G C12U C13A	1.2
U7A U8G G9C U10G U11G C12U C13U	1.48
U7A U8G G9C U10C C13G	1.1
U7A U8G G9C U10C C13U	1.28
U7A U8G G9C U10C C13A	1.09
U7A U8G G9A U10G U11G C12A C13A	1.65
U7A U8G G9A U10G U11G C12A C13U	1.5
U7A U8G G9A U10G U11G C12A C13G	1.34
U7A U8G G9A U11A C12A C13G	1.21
U7A U8G G9A U11A C12A C13U	1.16
U7A U8G G9A U11A C12A C13A	1.39
U7A U8G G9A U10G U11C	1.01
U7A U8G G9A U10G U11A	1.06
U7A U8G G9A U10G U11G	1.39
U7A U8G G9C U10G U11G C12A	1.36
U7A U8G G9C U10G U11G C12U	1.2
U7A U8G G9C U10G U11G C12G	1.19
U7A U8G G9A U11A C12U C13A	1.37

Variant	aptazyme ON/OFF ratio
U7A U8G G9A U11A C12U C13G	1.28
U7A U8G G9A U11A C12U C13U	1.32
U7A U8G G9A U11C C12G C13A	1.32
U7A U8G G9A U11C C12G C13G	1.4
U7A U8G G9A U11C C12G C13U	1.14
U7A U8G G9A U10G C12A C13U	1.31
U7A U8G G9A U10G C12U C13G	1.36
U7A U8G G9A U10G C12U C13A	1.43
U7A U8G G9A U10G C12U C13U	1.24
U7A U8G G9C U10C U11C C12A	1.06
U7A U8G G9C U10C U11C C12G	1.05
U7A U8G G9C U10C U11C C12U	0.975
U7A U8G G9C U10C U11G	1.26
U7A U8G G9C U10C U11A	1.03
U7A U8G G9C U10C U11C	0.976
U7A U8G G9A U11A C12U	1.38
U7A U8G G9A U11A C12A	1.56
U7A U8G G9A U11A C12G	1.37
U7A U8G G9C U10G C13A	1.52
U7A U8G G9C U10G C13G	1.19
